From article PMC3094553 come the findings set out here.

The target in this test is PF0699 (conserved hypothetical protein) (Pyrococcus furiosus) (UniProt Q8U2X9). Put plainly: SAXS.

Consider “PF0699 (conserved hypothetical protein) (from UniProt Q8U2X9 1-139) (natural protein)”, for which the stoichiometry N is 2.
